Reference: patent US20240109965A1 (Ablynx, published 2024)
Numbering of substitutions follows the chain as printed.

T1: cynomolgus TCRαβ-zipper protein (cynomolgus)
T1 construct: also called cyTCR(AEA41865)-zipper; CynoTCRαβ-zipper
T1 TCR alpha: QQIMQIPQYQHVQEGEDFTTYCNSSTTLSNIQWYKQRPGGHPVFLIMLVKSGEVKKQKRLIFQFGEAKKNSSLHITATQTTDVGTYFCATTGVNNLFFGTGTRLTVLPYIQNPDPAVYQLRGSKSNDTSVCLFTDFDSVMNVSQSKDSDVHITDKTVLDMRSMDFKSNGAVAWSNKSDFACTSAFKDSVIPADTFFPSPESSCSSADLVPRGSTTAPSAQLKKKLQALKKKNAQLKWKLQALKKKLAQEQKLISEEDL
T1 TCR beta: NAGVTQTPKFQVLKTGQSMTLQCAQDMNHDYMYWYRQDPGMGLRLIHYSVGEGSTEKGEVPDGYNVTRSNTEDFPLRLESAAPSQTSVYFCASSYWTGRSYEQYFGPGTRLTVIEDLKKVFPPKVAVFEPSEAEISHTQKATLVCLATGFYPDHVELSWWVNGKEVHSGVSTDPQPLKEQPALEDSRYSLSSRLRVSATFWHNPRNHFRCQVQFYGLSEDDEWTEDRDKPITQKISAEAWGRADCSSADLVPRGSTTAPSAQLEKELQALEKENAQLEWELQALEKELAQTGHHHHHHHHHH

B1: T017000700 (VHH)
VHH: EVQLVESGGGVVQPGGSLRLSCVASGYVHKINFYGWYRQAPGKEREKVAHISIGDQTDYADSAKGRFTISRDESKNTVYLQMNSLRPEDTAAYYCRALSRIWPYDYWGQGTLVTVSS
B2: T017000977 (VHH)
VHH: B1 VHH with D61V, W102Y
B3: T017000946 (VHH)
VHH: B1 VHH with D61A
B4: T017000979 (VHH)
VHH: B1 VHH with D61A, W102Y
B5: T017000940 (VHH)
VHH: B1 VHH with D61R
B6: T017000944 (VHH)
VHH: B1 VHH with D61V
B7: T017000980 (VHH)
VHH: B1 VHH with D61Q, W102Y
B8: T017000951 (VHH)
VHH: B1 VHH with D61S
B9: T017000949 (VHH)
VHH: B1 VHH with D61Q
B10: T017000976 (VHH)
VHH: B1 VHH with D61R, W102Y
B11: T017000938 (VHH)
VHH: B1 VHH with D61P
B12: T017000981 (VHH)
VHH: B1 VHH with D61S, W102Y
B13: T017000978 (VHH)
VHH: B1 VHH with D61E, W102Y
notes: also called T01700978
B14: T017000967 (VHH)
VHH: B1 VHH with W102Y
B15: T017000945 (VHH)
VHH: B1 VHH with D61E
B16: T017000995 (VHH)
VHH: B1 VHH with D61E, W102Q
B17: T017001001 (VHH)
VHH: B1 VHH with D61E, W102T
B18: T017000999 (VHH)
VHH: B1 VHH with D61E, W102S
notes: also called T01700999
B19: T017001028 (bispecific antibody)
chain: EVQLVESGGGVVQPGGSLRLSCAASGTTLDYYVIGWFRQAPGKEREGVSCISSSDGYTYYADSVKGRFTISRDNAKNTVYLQMNSLRPEDTALYYCATDPYYSSCHPFFADYEYDYWGQGTLVTVSSGGGGSGGGSEVQLVESGGGVVQPGGSLRLSCVASGYVHKINFYGWYRQAPGKEREKVAHISIGDQTDYAESAKGRFTISRDESKNTVYLQMNSLRPEDTAAYYCRALSRIYPYDYWGQGTLVTVSSGGGGSGGGSEVQLVESGGGVVQPGGSLRLSCAASGFTFRSFGMSWVRQAPGKGPEWVSSISGSGSDTLYADSVKGRFTISRDNSKNTLYLQMNSLRPEDTALYYCTIGGSLSRSSQGTLVTVSS
B20: T017001030 (bispecific antibody)
chain: B19 chain with Y238S
B21: T017001031 (bispecific antibody)
chain: B19 chain with Y238Q
B22: T017001029 (bispecific antibody)
chain: B19 chain with Y238T
B23: T017001027 (bispecific antibody)
chain: B19 chain with E197D, Y238W
B24: T017001022 (bispecific antibody)
chain: DVQLVESGGGVVQPGGSLRLSCVASGYVHKINFYGWYRQAPGKEREKVAHISIGDQTDYADSAKGRFTISRDESKNTVYLQMNSLRPEDTAAYYCRALSRIWPYDYWGQGTLVTVSSGGGGSGGGSEVQLVESGGGVVQPGGSLRLSCAASGTTLDYYVIGWFRQAPGKEREGVSCISSSDGYTYYADSVKGRFTISRDNAKNTVYLQMNSLRPEDTALYYCATDPYYSSCHPFFADYEYDYWGQGTLVTVSSGGGGSGGGSEVQLVESGGGVVQPGGSLRLSCAASGFTFRSFGMSWVRQAPGKGPEWVSSISGSGSDTLYADSVKGRFTISRDNSKNTLYLQMNSLRPEDTALYYCTIGGSLSRSSQGTLVTVSS
B25: T017001023 (bispecific antibody)
chain: B24 chain with D61E, W102Y
B26: T017001024 (bispecific antibody)
chain: B24 chain with D61E, W102T
B27: T017001025 (bispecific antibody)
chain: B24 chain with D61E, W102S
B28: T017001026 (bispecific antibody)
chain: B24 chain with D61E, W102Q

How the values were obtained:
[1] = target: T1, cynomolgus TCRαβ-zipper protein; experiment: SPR ProteOn XPR36, multi-cycle kinetics, TCR-zipper immobilized;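 note: monovalent His-tagged ISVD constructs flowed at six concentrations over amine-coupled TCR on a GLC chip, 120 s association, 600 s dissociation, double-referenced, fitted to 1:1 Langmuir model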
Procedure: Binding of purified, monovalent TCE-FLAG3-HIS6 and TCE-HIS6 ISVD constructs to human TCRαβ-zipper protein (huTCR(2XN9)-zipper, in-house produced) and cynomolgus TCRαβ-zipper protein (cyTCR(AEA41865)-zipper, in-house produced) was probed by Surface Plasmon Resonance (SPR) (Bio-rad Laboratories, Inc., ProteOn XPR36). Both targets were immobilized on a GLC sensor chip (short matrix, normal capacity) using standard amine coupling chemistry. ISVD constructs were injected at 6 different concentrations in a multi-cycle kinetics (MCK) experiment. Each concentration of the ISVDs was injected for 120s and dissociation was assessed during 600s.
Data was double referenced by subtracting a reference analyte lane and a blank buffer injection. Affinity constants (ka, kd and KD) were calculated applying the Langmuir 1:1 interaction model using the ProteOn Manager 3.1.0 (Bio-rad Laboratories, Inc., Version 3.1.0.6).

[2] = target: T1, cynomolgus TCRαβ-zipper protein; experiment: SPR Biacore 8K+, multi-cycle kinetics, TCR-zipper immobilized
Procedure: Binding of purified TCE-CD123-ALB and CD123-TCE-ALB ISVD constructs to human TCRαβ-zipper protein (huTCR(2XN9)-zipper, in-house produced) and cynomolgus TCRαβ-zipper protein (cyTCR(AEA41865)-zipper, in-house produced) was probed by Surface Plasmon Resonance (SPR) (Cytiva, Biacore 8K+). Both targets were immobilized on a CM5 sensor chip using standard amine coupling chemistry. […] Each concentration of the ISVDs was injected for 180s and dissociation was assessed during 600s.
Data was double referenced by subtracting a reference flow cell (FC) and a blank buffer injection. Affinity constants (ka, kd and KD) were calculated applying the Langmuir 1:1 interaction model using the Biacore Insight Evaluation Software (Cytiva, Version 3.0.12.15655).

[3] = target: human T cell receptor (TCRαβ) on primary human T cells (human); experiment: cell-based or functional assay
Chain of human T cell receptor (TCRαβ) on primary human T cells (human) (P0DTU3 134-275, chain 1 of 2): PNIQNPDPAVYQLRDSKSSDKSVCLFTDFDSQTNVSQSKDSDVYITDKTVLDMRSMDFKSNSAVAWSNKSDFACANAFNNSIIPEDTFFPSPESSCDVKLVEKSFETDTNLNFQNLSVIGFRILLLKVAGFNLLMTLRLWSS
Chain of human T cell receptor (TCRαβ) on primary human T cells (human) (P01850 other isoform, or with tags, fused parts or gaps, chain 2 of 2, further chain): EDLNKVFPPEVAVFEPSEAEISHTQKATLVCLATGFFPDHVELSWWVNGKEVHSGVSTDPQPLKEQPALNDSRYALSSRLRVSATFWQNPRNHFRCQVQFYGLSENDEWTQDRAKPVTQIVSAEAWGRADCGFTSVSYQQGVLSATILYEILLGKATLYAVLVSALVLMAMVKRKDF

| Binder | Kd [1] | KD ratio cy/huTCR [1] | KD ratio vs ref [1] | koff [1] | kon [1] | Kd [2] | EC50 (M), human T cell mediated MOLM-13 cell killing, Donor #1 [3] | EC50 (M), human T cell mediated MOLM-13 cell killing, Donor #2 [3] |
| --- | --- | --- | --- | --- | --- | --- | --- | --- |
| B1 | 8 nM |  |  |  |  |  |  |  |
| B2 | 19 nM | 4.3 | 2.4 | 0.0035 s⁻¹ | 180000 M⁻¹ s⁻¹ |  |  |  |
| B3 | 7 nM | 3.1 | 0.9 | 0.0019 s⁻¹ | 270000 M⁻¹ s⁻¹ |  |  |  |
| B4 | 19 nM | 3.8 | 2.3 | 0.0035 s⁻¹ | 180000 M⁻¹ s⁻¹ |  |  |  |
| B5 | 6.1 nM | 3.2 | 0.8 | 0.0019 s⁻¹ | 320000 M⁻¹ s⁻¹ |  |  |  |
| B6 | 7 nM | 3 | 0.9 | 0.0019 s⁻¹ | 280000 M⁻¹ s⁻¹ |  |  |  |
| B7 | 17 nM | 4 | 2.1 | 0.0034 s⁻¹ | 210000 M⁻¹ s⁻¹ |  |  |  |
| B8 | 7.4 nM | 3 | 0.9 | 0.002 s⁻¹ | 260000 M⁻¹ s⁻¹ |  |  |  |
| B9 | 6.8 nM | 3.2 | 0.8 | 0.0019 s⁻¹ | 280000 M⁻¹ s⁻¹ |  |  |  |
| B10 | 15 nM | 3.9 | 1.9 | 0.0035 s⁻¹ | 230000 M⁻¹ s⁻¹ |  |  |  |
| B11 | 6.7 nM | 3.2 | 0.8 | 0.0019 s⁻¹ | 280000 M⁻¹ s⁻¹ |  |  |  |
| B12 | 17 nM | 3.8 | 2.1 | 0.0035 s⁻¹ | 210000 M⁻¹ s⁻¹ |  |  |  |
| B13 | 20 nM | 4 | 2.5 | 0.0033 s⁻¹ | 170000 M⁻¹ s⁻¹ |  |  |  |
| B14 | 14 nM | 3.1 | 1.7 | 0.0028 s⁻¹ | 200000 M⁻¹ s⁻¹ |  |  |  |
| B15 | 7.1 nM | 3.1 | 0.9 | 0.0018 s⁻¹ | 260000 M⁻¹ s⁻¹ |  |  |  |
| B16 | 2000 nM | 2 | 246 | 0.093 s⁻¹ | 47000 M⁻¹ s⁻¹ |  |  |  |
| B17 | 1100 nM | 3.1 | 133 | 0.034 s⁻¹ | 32000 M⁻¹ s⁻¹ |  |  |  |
| B18 | 350 nM | 2.5 | 43 | 0.018 s⁻¹ | 51000 M⁻¹ s⁻¹ |  |  |  |
| B19 |  |  |  |  |  | 400 nM | 6.7e-10 M | 3.2e-09 M |
| B20 |  |  |  |  |  | 3600 nM | 5.8e-09 M |  |
| B21 |  |  |  |  |  | 18000 nM |  |  |
| B22 |  |  |  |  |  | 9100 nM |  |  |
| B23 |  |  |  |  |  | 190 nM | 5.7e-10 M | 2.8e-09 M |
| B24 |  |  |  |  |  | 15 nM | 1.5e-11 M | 1.4e-10 M |
| B25 |  |  |  |  |  | 37 nM | 2.4e-11 M | 1.1e-10 M |
| B26 |  |  |  |  |  | 2400 nM |  | 9.8e-10 M |
| B27 |  |  |  |  |  | 780 nM | 6.6e-11 M | 3.4e-10 M |
| B28 |  |  |  |  |  | 3900 nM | 3.4e-10 M | 4.4e-09 M |
